This data set concerns the target full length recombinant von Willebrand factor, P04275.

B1: recombinant ADAMTS13 (A Disintegrin And Metalloproteinase with Thrombospondin type 1 motif, member-13) (protein)
chain: AAGGILHLELLVAVGPDVFQAHQEDTERYVLTNLNIGAELLRDPSLGAQFRVHLVKMVILTEPEGAPNITANLTSSLLSVCGWSQTINPEDDTDPGHADLVLYITRFDLELPDGNRQVRGVTQLGGACSPTWSCLITEDTGFDLGVTIAHEIGHSFGLEHDGAPGSGCGPSGHVMASDGAAPRAGLAWSPCSRRQLLSLLSAGRARCVWDPPRPQPGSAGHPPDAQPGLYYSANEQCRVAFGPKAVACTFAREHLDMCQALSCHTDPLDQSSCSRLLVPLLDGTECGVEKWCSKGRCRSLVELTPIAAVHGRWSSWGPRSPCSRSCGGGVVTRRRQCNNPRPAFGGRACVGADLQAEMCNTQACEKTQLEFMSQQCARTDGQPLRSSPGGASFYHWGAAVPHSQGDALCRHMCRAIGESFIMKRGDSFLDGTRCMPSGPREDGTLSLCVSGSCRTFGCDGRMDSQQVWDRCQVCGGDNSTCSPRKGSFTAGRAREYVTFLTVTPNLTSVYIANHRPLFTHLAVRIGGRYVVAGKMSISPNTTYPSLLEDGRVEYRVALTEDRLPRLEEIRIWGPLQEDADIQVYRRYGEEYGNLTRPDITFTYFQPKPRQAWVWAAVRGPCSVSCGAGLRWVNYSCLDQARKELVETVQCQGSQQPPAWPEACVLEPCPPYWAVGDFGPCSASCGGGLRERPVRCVEAQGSLLKTLPPARCRAGAQQPAVALETCNPQPCPARWEVSEPSSCTSAGGAGLALENETCVPGADGLEAPVTEGPGSVDEKLPAPEPCVGMSCPPGWGHLDATSAGEKAPSPWGSIRTGAQAAHVWTPAAGSCSVSCGRGLMELRFLCMDSALRVPVQEELCGLASKPGSRREVCQAVPCPARWQYKLAACSVSCGRGVVRRILYCARAHGEDDGEEILLDTQCQGLPRPEPQEACSLEPCPPRWKVMSLGPCSASCGLGTARRSVACVQLDQGQDVEVDEAACAALVRPEASVPCLIADCTYRWHVGTWMECSVSCGDGIQRRRDTCLGPQAQAPVPADFCQHLPKPVTVRGCWAGPCVGQGTPSLVPHEEAAAPGRTTATPAGASLEWSQARGLLFSPAPQPRRLLPGPQENSVQSSACGRQHLEPTGTIDMRGPGQADCAVAIGRPLGEVVTLRVLESSLNCSAGDMLLLWGRLTWRKMCRKLLDMTFSSKTNTLVVRQRCGRPGGGVLLRYGSQLAPETFYRECDMQLFGPWGEIVSPSLSPATSNAGGCRLFINVAPHARIAIHALATNMGAGTEGANASYILIRDTHSLRTTAFHGQQVLYWESESSQAEMEFSEGFLKAQASLRGQYWTLQSWVPEMQDPQSWKGKEGT
On to B1, for which the “176 kDa dimeric VWF cleavage fragment (VWF immunoblot, vortex-based assay, no hemoglobin)” value is “Control reactions with 0.25 U/mL, 0.5 U/mL, and 1 U/mL rADAMTS13 in absence of hemoglobin showed a dose-dependent increase of the 176 kDa dimeric VWF cleavage fragment”; the “ADAMTS13-mediated VWF cleavage in the presence of hemoglobin (176 kDa fragment, densitometry)” value was “rADAMTS13 has a dose-dependent potency to overcome the inhibitory effect of hemoglobin on VWF cleavage”; the “cleavage of rVWF after pre-incubation of hemoglobin and rVWF (176 kDa fragment, densitometry)” value was “rADAMTS13 supplemented after a pre-incubation time of hemoglobin and rVWF was capable to cleave VWF”.

These data come from patent publication US20220249628.
